The text below walks through data of US20030175703, “RNA aptamers and methods for identifying the same” (published 2003).

Substitutions are numbered along the chain they refer to. Bounds are passed on as bounds.

B1: TOG 25 short no stem (ssRNA)
RNA: GGGAACAAAGCUGAAGUACUUAGGG
B2: TOG 25 short (TOGGLE-25t) (ssRNA)
RNA: GGGAACAAAGCUGAAGUACUUACCC
B3: E9-2 (ssRNA)
RNA: GGGAGAGAGGAAGAGGGAUGGGAUACCGAGCACGCAAAACACACAAUGCCCAAGCAGGACUCAUAACCCAGAGGUCGAU
B4: E9-3 (ssRNA)
RNA: GGGAGAGAGGAAGAGGGAUGGGCCAAAAGCGCAUACACCUGCGUGUUUCCCCCGCCAACAGUCAUAACCCAGAGGUCGAU
B5: F11-10 (ssRNA)
RNA: GGGAGAGAGGAAGAGGGAUGGGCUCGGCAGAAGACACGCAUUCACCUGGUGCCACCUCGUAACAUAACCCAGAGGUCGAU
B6: E10-11 (ssRNA)
RNA: GGGAGAGAGGAAGAGGGAUGGGCCAGAAGCGCUCACUACAACGUUGAACCCCCCGUCCACACCAUAACCCAGAGGUCGAU
B7: E10-8 (ssRNA)
RNA: GGGAGAGAGGAAGAGGGAUGGGCCAAAAGCGGACUGAAGACGUGUUUCCCCCAUCUCCGUGACAUAACCCAGAGGUCGAU
B8: D4-7 (ssRNA)
RNA: GGGAGAGAGGAAGAGGGAUGGGAUAAUAGCCCCAGCGAGAUAAUACUUGGCCCCGCUACUAACAUAACCCAGAGGUCGAU
B9: D8-1 (ssRNA)
RNA: B8 RNA with U24A, A42G, C59A, A62C
B10: D4-5 (ssRNA)
RNA: B8 RNA with U24G, A45C, A61G, A62C
B11: D4-3 (ssRNA)
RNA: B8 RNA with A23U, U24A, U57A, A62C
B12: D4-2 (ssRNA)
RNA: B8 RNA with U24A, A25C, A26U, C32U, U44C, A45G, C59A, U60G, A62C
B13: D7-6 (ssRNA)
RNA: B8 RNA with U24A, C59G, U60C, A62C
B14: D6-2 (ssRNA)
RNA: B8 RNA with U24A, U60A, A62C
B15: D7-1 (ssRNA)
RNA: B8 RNA with U24G, A28G, A42U, U57C, C59A, A62C
B16: E10-12 (ssRNA)
RNA: B8 RNA with U24A, U57G, C59A, U60C, A62C
B17: F11-7 (ssRNA)
RNA: B8 RNA with U24A, C59U, A62C
B18: D7-5 (ssRNA)
RNA: B8 RNA with U24A, A26C, C32U, A62C
B19: D7-9 (ssRNA)
RNA: B8 RNA with A23U, U24A, A42U, A43C, A62C
B20: D7-4 (ssRNA)
RNA: B8 RNA with U24G, A42C, A43G, C59G, A62C
B21: D6-3 (ssRNA)
RNA: B8 RNA with U24A, A58G, C59U, A62C
B22: D7-2 (ssRNA)
RNA: B8 RNA with U24G, C59A, A62C
B23: D4-9 (ssRNA)
RNA: B8 RNA with A23U, U24A, A26G, A28U, A43G
B24: D6-9 (ssRNA)
RNA: B8 RNA with U24A, A26U, A28U, U57A, A62C
B25: F11-8 (ssRNA)
RNA: B8 RNA with U24G, A26U, A62C
B26: D6-7 (ssRNA)
RNA: B8 RNA with A23U, U24G, A25C, U60A, A62C
B27: D6-10 (ssRNA)
RNA: B8 RNA with A23C, U24A, A25G, C32A, A42C, A62C
B28: E9-10 (ssRNA)
RNA: GGGAGAGAGGAAGAGGGAUGGGCCAGAACCAACUGCGGUGAACCCCCCAUACCGCGACACAUCAUAACCCAGAGGUCGAU
B29: E9-6 (ssRNA)
RNA: GGGAGAGAGGAAGAGGGAUGGGCCAGAAGCUAAACACUCAUAACCACGCUGAACCCCCCAACCAUAACCCAGAGGUCGAU
B30: E9-8 (ssRNA)
RNA: GGGAGAGAGGAAGAGGGAUGGGCCAGAAGGAACUAAACACCUGAACCCCCCAUCGCGAGAGACAUAACCCAGAGGUCGAU
B31: E9-5 (ssRNA)
RNA: GGGAGAGAGGAAGAGGGAUGGGCCAGAAGCGACACUAACGCUGAACCCCCCAGUCCCUUCACGUGCAUAACCCAGAGGUCGAU
B32: E10-6 (ssRNA)
RNA: GGGAGAGAGGAAGAGGGAUGGGGCCGUCGCCAGGAAUCAAACUGCUACUCCAUCCCGGGCACAUAACCCAGAGGUCGAU
B33: E9-4 (ssRNA)
RNA: GGGAGAGAGGAAGAGGGAUGGGAGCCCGAGAAAAUAACGCGUUCCACCAUACUACUAAGCCAUAACCCAGAGGUCGAU
B34: F11-6 (ssRNA)
RNA: GGGAGAGAGGAAGAGGGAUGGGCCAGCAACGUCACACGAACGGAAUACCCCCCAUUGAAAACCAUAACCCAGAGGUCGAU
B35: 11.F7t (ssRNA)
RNA: GAGAGCCCCAGCGAGAUAAUACUUGGCCCCGCUCUU
B36: E10-4 (ssRNA)
RNA: GGGAGAGAGGAAGAGGGAUGGGUCUUAGAUAUAGAACUCCGAGAGGACUGACCGUACAGAACCAUAACCCAGAGGUCGAU
B37: E9-9 (ssRNA)
RNA: GGGAGAGAGGAAGAGGGAUGGGCCAGAACACCAGUGAACCCCCCAGCCCCUUCUCACCAGAUCAUAACCCAGAGGUCGAU
B38: D6-4 (ssRNA)
RNA: GGGAGAGAGGAAGAGGGAUGGGAAAUUUGCCCUAGCGAGAUUAUACUUGGCCCCGCGAAAAACCAUAACCCAGAGGUCGAU
B39: D7-7 (ssRNA)
RNA: GGGAGAGAGGAAGAGGGAUGGGAGAAUACGCCUAGCGAGAAGAUACUUGGCCCCCGUGCAACCAUAACCCAGAGGUCGAU
B40: 9.28 (ssRNA)
RNA: GGGAGAGAGGAAGAGGGAUGGGCGCCAUACGCACAUUGCUGCAUCGCCUUCCCGUAAGAACCAUAACCCAGAGGUCGAUAGUACUGGAUCCCCCC
modifications: 2'-F pyrimidines
B41: 9.25 (ssRNA)
RNA: GGGAGAGAGGAAGAGGGAUGGGGACCAUAACUCUAACGGGUGAAUCCCGCAUCUCGACAAUACAUAACCCAGAGGUCGAUAGUACUGGAUCCCC
modifications: 2'-F pyrimidines
B42: 9.19 (ssRNA)
RNA: GGGAGAGAGGAAGAGGGAUGGGACCAUAACGACUACUCGUGAAUCCCACCAUCAGCGCACAACAUAACCCAGAGGUCGAUAGUACUGGAUCCCCCC
modifications: 2'-F pyrimidines
B43: 9.26 (ssRNA)
RNA: GGGAGAGAGGAAGAGGGAUGGGUGAUAACCACUCUGGUGAACCCCUCCCGACUUGCUCGCACAUAACCCAGAGGUCGAUAGUACUGGAUCCCCCC
modifications: 2'-F pyrimidines
B44: 9.27 (ssRNA)
RNA: GGGAGAGAGGAAGAGGGAUGGGUAAUAACUGUAUGGUGAACCCACCCAAACUCCCAUGGCUACAUAACCCAGAGGUCGAUAGUACUGGAUCCCCCC
modifications: 2'-F pyrimidines
B45: 9.20 (ssRNA)
RNA: GGGAGAGAGGAAGAGGGAUGGGGACUAUACCGGCAAUCGUGCAUCCCCUGGACCUAACAAUACAUAACCCAGAGGUCGAUAGUACUGGAUCCCCCC
modifications: 2'-F pyrimidines

coagulation factor IXa (FIXa), sequence (P00740 47-191, chain 1 of 2): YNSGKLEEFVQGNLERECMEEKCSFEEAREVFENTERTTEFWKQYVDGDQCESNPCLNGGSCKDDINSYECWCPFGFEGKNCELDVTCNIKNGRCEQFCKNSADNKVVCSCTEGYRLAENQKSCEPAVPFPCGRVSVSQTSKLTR
coagulation factor IXa (FIXa), sequence (P00740 227-461, chain 2 of 2): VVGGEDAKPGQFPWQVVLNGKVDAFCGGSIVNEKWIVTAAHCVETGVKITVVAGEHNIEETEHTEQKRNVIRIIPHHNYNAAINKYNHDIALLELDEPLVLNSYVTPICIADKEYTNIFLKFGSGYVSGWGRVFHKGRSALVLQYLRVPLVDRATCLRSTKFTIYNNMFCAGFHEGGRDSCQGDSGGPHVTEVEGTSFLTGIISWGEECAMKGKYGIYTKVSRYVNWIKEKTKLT

For one data set, the target named is thrombin (F2) (human, UniProt P00734;P00734 P00734:328-363,P00734:364-622).
Experiment: not given
As to B1, the Kd was approximately 1000 nM.
On the same count and under the same terms, under B2 stands approximately 1 nM.

A further data set deals with coagulation factor Xa (FXa) (UniProt P00742;P00742 P00742:41-179,P00742:235-488).
coagulation factor Xa (FXa), sequence (P00742 41-179, chain 1 of 2): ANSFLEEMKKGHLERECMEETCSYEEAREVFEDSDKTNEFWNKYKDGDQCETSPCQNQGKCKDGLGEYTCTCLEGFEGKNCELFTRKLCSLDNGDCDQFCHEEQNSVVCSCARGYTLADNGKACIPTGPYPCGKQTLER
coagulation factor Xa (FXa), sequence (P00742 235-488, chain 2 of 2): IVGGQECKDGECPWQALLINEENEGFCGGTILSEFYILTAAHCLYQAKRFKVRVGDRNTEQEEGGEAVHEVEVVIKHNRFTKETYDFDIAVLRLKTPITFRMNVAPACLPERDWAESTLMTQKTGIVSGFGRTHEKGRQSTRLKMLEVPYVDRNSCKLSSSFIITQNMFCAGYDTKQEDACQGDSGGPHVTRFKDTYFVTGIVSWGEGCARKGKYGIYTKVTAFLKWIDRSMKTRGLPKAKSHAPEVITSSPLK
Experiment: not given
Molecule B3 showed a Kd of 58.6 nM.
The molecule B4 returned a Kd of 46.5 nM.
B5 yielded a Kd of 84.4 nM. This Kd is about 1.8-fold higher than that of the molecule before.
On the same count and under the same terms, the value for B6 was 27.1 nM; that for B7 was 28.4 nM.
In the case of B8, the binding result is given as “binds”.
The molecule B9 showed a Kd of 4.8 nM.
Still for that read-out and setting: under B10 stands 21.7 nM; under B11, 65.5 nM.
With B12, the Kd turned out to be 540 nM.
B13 yielded a Kd of 3.8 nM.
On the same count and under the same terms, the value for B14 was 4.6 nM.
On the same count and under the same terms, the value for B15 was 4.7 nM.
Still for that read-out and setting: under B16 stands 11.7 nM; under B17, 3.6 nM.
As to B18, the equilibrium dissociation constant (Kd) is 26.1 nM.
On the same count and under the same terms, under B19 stands 2.63 nM.
The same measure, in the same setting: the value for B20 was 39.3 nM.
Still for that read-out and setting: under B21 stands 5.9 nM; under B22, 8.1 nM; under B23, more than 240 nM.
Molecule B24 returned a Kd of 6.5 nM.
Same read-out and setting: under B25 stands 2.2 nM.
The same measure, in the same setting: under B26 stands 13.2 nM.
The same measure, in the same setting: under B27 stands 18.7 nM; under B28, 130 nM; under B29, 95.1 nM.
In the case of B30, the Kd turned out to be 29.8 nM.
Consider B31, for which the dissociation constant (Kd) was found to be 53.5 nM.
Still for that read-out and setting: under B32 stands 85.7 nM; under B33, 65 nM.
Still for that read-out and setting: under B34 stands 33.6 nM; under B35, approximately 1.5 nM.
The same measure, in the same setting: the value for B36 was 37.4 nM; that for B37 was 52.8 nM.
Molecule B38 yielded a Kd of 8.5 nM.
Same read-out and setting: the value for B39 was 5.8 nM.

Another data set addresses coagulation factor IXa (FIXa) (UniProt P00740;P00740 P00740:47-191,P00740:227-461). Description: filter; double-filter nitrocellulose.
In the case of B40, the Kd was found to be 0.592 nM. This counts as sub-nanomolar.
In turn, B41 showed a Kd of 0.49 nM. The Kd values of the last two molecules are within 1.5-fold of each other.
The same measure, in the same setting: under B42 stands 0.707 nM; under B43, 0.49 nM; under B44, 1.64 nM.
Same read-out and setting: under B45 stands 0.49 nM.

For orientation: Kd means the free concentration of one partner at which half of the binding sites on the other are occupied at equilibrium, for simple one-to-one binding.
